{"source": "patent US8518892B2", "about": "“Methods to treat symptoms of pathophysiology related to body mass” (Board of Supervisors of Louisiana State University and …, priority 2005, dated 2013)", "molecules": {"B1": {"name": "Enho 1: human Enho 1, a 76 amino acid peptide having the sequence SEQ ID NO: 14 (peptide, listed as Homo sapiens)", "chain": "MGAAISQGALIAIVCNGLVGFLLLLLWVILCWACHSRSADVDSLSESSPNSSPGPCPEKAPPPQKPSHEGSYLLQP"}}, "tested_on": "diet induced obese (DIO) C57BL/6J mice", "test": "Enho 1 ip for 3 days in diet induced obese C57BL/6J mice (Examples 19-21)", "assay_type": "in vivo, mouse", "experimental": "(§1) The effect of Enho-1 upon weight loss was tested over the course of 3 days using diet induced obese (DIO) C57BL/6J mice (Jackson Laboratories, Bar Harbor, Me.). The mice were fed Research Diets 12492 (60% kJ/fat) for 12 weeks, resulting in obesity and moderate hyperglycemia in the animals. The mice were approximately 20-22 weeks of age and 30-50 g in weight at the start of the experiment. Fasting blood glucose was determined to be approximately 170-220 mg/dL. Six control mice received vehicle only while six test mice each received doses of either 90 nmol/kg/d, 900 nmol/kg/d or 9000 nmol/kg/d. The injections were given as 3 ip injections at 0600, 1400 and 2000 h on days 1 and 2; over the 3 day period, the mice received a total of 7 injections. All animals were euthanized 5 hours after the last injection given the morning of the third day. Food was removed after the final injection.\nas §1, with “insulin and glucose” for “weight loss”\nThe HOMA-IR for each treatment was calculated using the following formula: ((glucose mg/dL÷18)×(insulin ng/ml×25.05))÷22.5\nas §1, with “liver weight, liver lipid content and liver TG” for “weight loss”", "key": {"[1]": {"conditions": "90 nmol/kg/d ip, listed as Enho-1"}, "[2]": {"conditions": "900 nmol/kg/d ip, listed as Enho-1"}, "[3]": {"conditions": "9000 nmol/kg/d ip, listed as Enho-1"}}}
{"molecule": "B1", "values": [{"measurement": "Blood glucose", "setting": "90 nmol/kg/d ip", "value": 204, "unit": "mg/dL"}, {"measurement": "Delta body weight", "setting": "90 nmol/kg/d ip", "value": 2.9, "unit": "%"}, {"measurement": "HOMA-IR", "setting": "90 nmol/kg/d ip", "value": 50}, {"measurement": "HOMA-IR decrease as compared to the control group", "setting": "90 nmol/kg/d ip", "value": 15, "unit": "%"}, {"measurement": "Insulin", "setting": "90 nmol/kg/d ip", "value": 3.8, "unit": "ng/mL"}, {"measurement": "Liver TG", "setting": "90 nmol/kg/d ip", "value": 57, "unit": "mg/g"}, {"measurement": "Liver TG total", "setting": "90 nmol/kg/d ip", "value": 86, "unit": "mg/g"}, {"measurement": "Liver lipid", "setting": "90 nmol/kg/d ip", "value": 126, "unit": "mg/g"}, {"measurement": "Liver lipid total", "setting": "90 nmol/kg/d ip", "value": 188, "unit": "mg/g"}, {"measurement": "Liver weight", "setting": "90 nmol/kg/d ip", "value": 1.5, "unit": "grams"}, {"measurement": "Liver weight % body weight", "setting": "90 nmol/kg/d ip", "value": 3.6, "unit": "%"}, {"measurement": "Weight (pre-treatment)", "setting": "90 nmol/kg/d ip", "value": 42.9, "unit": "g"}, {"measurement": "Weight (termination)", "setting": "90 nmol/kg/d ip", "value": 41.7, "unit": "g"}, {"measurement": "Blood glucose", "setting": "[1]", "value": "204 ± 7", "unit": "mg/dL"}, {"measurement": "HOMA-IR", "setting": "[1]", "value": "50 ± 5"}, {"measurement": "HOMA-IR decrease as compared to the control group", "setting": "[1]", "value": "(↓ 15%)"}, {"measurement": "Insulin", "setting": "[1]", "value": "3.8 ± 0.4", "unit": "ng/mL"}, {"measurement": "Liver TG", "setting": "[1]", "value": "57 ± 8", "unit": "mg/g"}, {"measurement": "Liver TG total", "setting": "[1]", "value": "86 ± 14", "unit": "mg/g"}, {"measurement": "Liver lipid", "setting": "[1]", "value": "126 ± 8", "unit": "mg/g"}, {"measurement": "Liver lipid total", "setting": "[1]", "value": "188 ± 13", "unit": "mg/g"}, {"measurement": "Liver weight", "setting": "[1]", "value": "1.5 ± 0.0", "unit": "grams"}, {"measurement": "Liver weight % body weight", "setting": "[1]", "value": "3.6 ± 0.1", "unit": "%"}, {"measurement": "Weight (pre-treatment)", "setting": "[1]", "value": "42.9 ± 1.2", "unit": "g"}, {"measurement": "Weight (termination)", "setting": "[1]", "value": "41.7 ± 0.9", "unit": "g"}, {"measurement": "Delta body weight", "setting": "900 nmol/kg/d ip", "value": 3.5, "unit": "%"}, {"measurement": "HOMA-IR", "setting": "900 nmol/kg/d ip", "value": 42}, {"measurement": "Insulin", "setting": "900 nmol/kg/d ip", "value": 4.2, "unit": "ng/mL"}, {"measurement": "Liver TG", "setting": "900 nmol/kg/d ip", "value": 48, "unit": "mg/g"}, {"measurement": "Liver TG total", "setting": "900 nmol/kg/d ip", "value": 66, "unit": "mg/g"}, {"measurement": "Liver lipid", "setting": "900 nmol/kg/d ip", "value": 137, "unit": "mg/g"}, {"measurement": "Liver lipid total", "setting": "900 nmol/kg/d ip", "value": 226, "unit": "mg/g"}, {"measurement": "Liver weight", "setting": "900 nmol/kg/d ip", "value": 1.5, "unit": "grams"}, {"measurement": "Liver weight % body weight", "setting": "900 nmol/kg/d ip", "value": 3.5, "unit": "%"}, {"measurement": "Weight (pre-treatment)", "setting": "900 nmol/kg/d ip", "value": 42.8, "unit": "g"}, {"measurement": "Weight (termination)", "setting": "900 nmol/kg/d ip", "value": 41.3, "unit": "g"}, {"measurement": "blood glucose levels decrease", "setting": "900 nmol/kg/d ip", "value": "approximately 15%"}, {"measurement": "insulin levels reduction", "setting": "900 nmol/kg/d ip", "value": "about 14%"}, {"measurement": "Blood glucose", "setting": "900 nmol/kg/d ip, P < 0.05 vs 90", "value": 166, "unit": "mg/dL"}, {"measurement": "Blood glucose", "setting": "900 nmol/kg/d ip, P < 0.05 vs 90, listed as Enho-1", "value": "166 ± 13", "unit": "mg/dL"}, {"measurement": "HOMA-IR", "setting": "[2]", "value": "42 ± 3"}, {"measurement": "Insulin", "setting": "[2]", "value": "4.2 ± 0.5", "unit": "ng/mL"}, {"measurement": "Liver TG", "setting": "[2]", "value": "48 ± 12", "unit": "mg/g"}, {"measurement": "Liver TG total", "setting": "[2]", "value": "66 ± 14", "unit": "mg/g"}, {"measurement": "Liver lipid", "setting": "[2]", "value": "137 ± 34", "unit": "mg/g"}, {"measurement": "Liver lipid total", "setting": "[2]", "value": "226 ± 77", "unit": "mg/g"}, {"measurement": "Liver weight", "setting": "[2]", "value": "1.5 ± 0.2", "unit": "grams"}, {"measurement": "Liver weight % body weight", "setting": "[2]", "value": "3.5 ± 0.2", "unit": "%"}, {"measurement": "Weight (pre-treatment)", "setting": "[2]", "value": "42.8 ± 2.9", "unit": "g"}, {"measurement": "Weight (termination)", "setting": "[2]", "value": "41.3 ± 2.7", "unit": "g"}, {"measurement": "HOMA-IR decrease as compared to the control group", "setting": "900 nmol/kg/d ip, p<0.02", "value": 29, "unit": "%"}, {"measurement": "HOMA-IR decrease as compared to the control group", "setting": "900 nmol/kg/d ip, p<0.02, listed as Enho-1", "value": "(↓ 29%)"}, {"measurement": "Blood glucose", "setting": "9000 nmol/kg/d ip", "value": 198, "unit": "mg/dL"}, {"measurement": "Delta body weight", "setting": "9000 nmol/kg/d ip", "value": 4.1, "unit": "%"}, {"measurement": "HOMA-IR", "setting": "9000 nmol/kg/d ip", "value": 52}, {"measurement": "HOMA-IR decrease as compared to the control group", "setting": "9000 nmol/kg/d ip", "value": 12, "unit": "%"}, {"measurement": "Insulin", "setting": "9000 nmol/kg/d ip", "value": 4.2, "unit": "ng/mL"}, {"measurement": "Liver TG", "setting": "9000 nmol/kg/d ip", "value": 47, "unit": "mg/g"}, {"measurement": "Liver TG total", "setting": "9000 nmol/kg/d ip", "value": 63, "unit": "mg/g"}, {"measurement": "Liver lipid", "setting": "9000 nmol/kg/d ip", "value": 139, "unit": "mg/g"}, {"measurement": "Liver lipid total", "setting": "9000 nmol/kg/d ip", "value": 230, "unit": "mg/g"}, {"measurement": "Liver weight", "setting": "9000 nmol/kg/d ip", "value": 1.4, "unit": "grams"}, {"measurement": "Liver weight % body weight", "setting": "9000 nmol/kg/d ip", "value": 3.4, "unit": "%"}, {"measurement": "Weight (pre-treatment)", "setting": "9000 nmol/kg/d ip", "value": 42.7, "unit": "g"}, {"measurement": "Weight (termination)", "setting": "9000 nmol/kg/d ip", "value": 40.9, "unit": "g"}, {"measurement": "liver TG reduction as compared to the control group", "setting": "9000 nmol/kg/d ip", "value": "18-19%"}, {"measurement": "Blood glucose", "setting": "[3]", "value": "198 ± 9", "unit": "mg/dL"}, {"measurement": "HOMA-IR", "setting": "[3]", "value": "52 ± 4"}, {"measurement": "HOMA-IR decrease as compared to the control group", "setting": "[3]", "value": "(↓ 12%)"}, {"measurement": "Insulin", "setting": "[3]", "value": "4.2 ± 0.3", "unit": "ng/mL"}, {"measurement": "Liver TG", "setting": "[3]", "value": "47 ± 9", "unit": "mg/g"}, {"measurement": "Liver TG total", "setting": "[3]", "value": "63 ± 10", "unit": "mg/g"}, {"measurement": "Liver lipid", "setting": "[3]", "value": "139 ± 42", "unit": "mg/g"}, {"measurement": "Liver lipid total", "setting": "[3]", "value": "230 ± 96", "unit": "mg/g"}, {"measurement": "Liver weight", "setting": "[3]", "value": "1.4 ± 0.2", "unit": "grams"}, {"measurement": "Liver weight % body weight", "setting": "[3]", "value": "3.4 ± 0.3", "unit": "%"}, {"measurement": "Weight (pre-treatment)", "setting": "[3]", "value": "42.7 ± 1.6", "unit": "g"}, {"measurement": "Weight (termination)", "setting": "[3]", "value": "40.9 ± 1.6", "unit": "g"}, {"measurement": "serum TG reduction as compared to the control group", "setting": "9000 nmol/kg/d ip, p<0.05, 1-tailed t-test", "value": 20, "unit": "%"}]}
